In patent US20230110128A1, “USE OF ANTIBODY DRUG CONJUGATES COMPRISING TUBULIN DISRUPTING AGENTS TO TREAT SOLID TUMOR” (Seagen Inc., priority 2018, published 2023):

Legend:
[1] = test system: PC-3 cells subcutaneously engrafted; test: Cytokine/chemokine production in PC-3 tumor-bearing mice by ELISA; format: in vivo, athymic nude mice; settings: PC-3 tumors, single intraperitoneal dose, 8 days post-ADC treatment
Experimental: In another study, athymic nude mice were subcutaneously engrafted with PC-3 cells. Upon reaching 200 cubic millimeters, mice received a single intraperitoneal dose of an MMAE-containing ADC (SGN-LIV1A or anti-CD71-MMAE). 8 days post-ADC treatment, tumors were excised and homogenized in RIPA buffer and cytokine/chemokine production was measured by ELISA. Peripheral cytokine levels were also measured in the serum by ELISA.

MCF7 cells [2] = test: HMGB1 release from MCF7 cells; format: cell-based
Experimental: (§1) Induction of ICD is also characterized by the secretion of ATP and HMGB1. Extracellular ATP serves as a strong chemotactic signal, promoting immune cell migration to the tumor site. Upon arrival, extracellular HMGB1 signals through various pro-inflammatory receptors (TLR2, TLR4, RAGE) to activate antigen-presenting cells, thereby promoting immune activity within the tumor.
as §1, with “MCF7 cells were treated with MMAE or an MMAE-containing ADC (SGN-LIV1A) for 16 hours and harvested in […] for western bot analysis. […] Induction” for “Induction”

[3] = test system: MCF7 cells subcutaneously engrafted; test: Immune cell composition of MCF7 tumors by flow cytometry; format: in vivo; settings: SOD mice with MCF7 tumors, single intraperitoneal dose, 8 days post-ADC treatment
Source text: […] were subcutaneously engrafted with MCF7 cells. Upon reaching 200 cubic millimeters, mice received a single intraperitoneal dose of an MMAE-containing ADC (SGN-LIV1A or anti-CD71-MMAE). 8 days post-ADC treatment, tumors were excised and assessed for immune cell composition by flow cytometry.

MCF7 cells [4] = test: ATP secretion from MCF7 cells; format: cell-based
[5] = test system: PC-3 cells subcutaneously engrafted; test: Immune cell infiltration of PC-3 tumors by flow cytometry; format: in vivo, athymic nude mice; settings: single intraperitoneal dose, 8 days post-ADC treatment
Source text: Athymic nude mice were subcutaneously engrafted with PC-3 cells. Upon reaching 200 cubic millimeters, mice received a single intraperitoneal dose of an MMAE-containing ADC (SGN-LIV1A or anti-CD71-MMAE). 8 days post-ADC treatment, tumors were excised and assessed for immune cell infiltration and composition by flow cytometry.

MCF7 breast cancer cells = test: Western blot analysis of ER stress response in MCF7 cells; format: cell-based; settings: FIG. 16A
Experimental: MCF7 breast cancer cells were treated with 100 nM MMAE for 16 hours and harvested RIPA buffer for western blot analysis.
as §1, with “MCF7 cells were treated with MMAE or an MMAE-containing ADC (SGN-LIV1A) for 16 hours and harvested in […] for western bot analysis. […] Induction” for “Induction”

B1: SGN-LIV1A (conjugate, chains of the INN, looked up)
VH: QVQLVQSGAEVKKPGASVKVSCKASGLTIEDYYMHWVRQAPGQGLEWMGWIDPENGDTEYGPKFQGRVTMTRDTSINTAYMELSRLRSDDTAVYYCAVHNAHYGTWFAYWGQGTLVTVSS
VL: DVVMTQSPLSLPVTLGQPASISCRSSQSLLHSSGNTYLEWYQQRPGQSPRPLIYKISTRFSGVPDRFSGSGSGTDFTLKISRVEAEDVGVYYCFQGSHVPYTFGGGTKVEIK
modifications: vedotin (MMAE) payload
Cytokine and chemokine production (intratumoral and serum) [1]: elevated cytokine and chemokine production | Secretion of HMGB1 (MCF7 cells [2]): increased secretion | Immune activation by tumor-infiltrating immune cells [3]: increased level of immune activation by tumor-infiltrating immune cells | Secretion of ATP (MCF7 cells [4]): increased secretion | ATP secretion (MCF7 cells [4]; after 48 hours of treatment): Increased AIR secretion | Activation of tumor-infiltrating immune cells [5]: enhanced activation | Infiltration of immune cells into tumors [5]: increased infiltration of immune cells | Severe ER stress (phosphorylation of IRE1 and JNK) (MCF7 breast cancer cells): elicits severe ER stress (phosphorylation of IRE1 and JNK)
